# Literature values in patent US5770691A, “Discriminatory substrates for MMP hydrolysis” (Regents of the University of Minnesota, priority 1995, dated 1998).
# B1: Human α1 -antichymotrypain: protease inhibitor cleaved by MMP-3 at Ala360-Leu361 (protein, UniProt P01011 24-423, looked up)
# Alpha-1-antichymotrypsin: HPNSPLDEENLTQENQDRGTHVDLGLASANVDFAFSLYKQLVLKAPDKNVIFSPLSISTALAFLSLGAHNTTLTEILKGLKFNLTETSEAEIHQSFQHLLRTLNQSSDELQLSMGNAMFVKEQLSLLDRFTEDAKRLYGSEAFATDFQDSAAAKKLINDYVKNGTRGKITDLIKDLDSQTMMVLVNYIFFKAKWEMPFDPQDTHQSRFYLSKKKWVMVPMMSLHHLTIPYFRDEELSCTVVELKYTGNASALFILPDQDKMEEVEAMLLPETLKRWRDSLEFREIGELYLPKFSISRDYNLNDILLQLGIEEAFTSKADLSGITGARNLAVSQVVHKAVLDVFEEGTEASAATAVKITLLSALVETRTIVRFNRPFLMIIVPTDTQNIFFMSKVTNPKQA
# Target: MMP-3 (Homo sapiens, UniProt P08254)
# Sequence (P08254 100-477, species assumed): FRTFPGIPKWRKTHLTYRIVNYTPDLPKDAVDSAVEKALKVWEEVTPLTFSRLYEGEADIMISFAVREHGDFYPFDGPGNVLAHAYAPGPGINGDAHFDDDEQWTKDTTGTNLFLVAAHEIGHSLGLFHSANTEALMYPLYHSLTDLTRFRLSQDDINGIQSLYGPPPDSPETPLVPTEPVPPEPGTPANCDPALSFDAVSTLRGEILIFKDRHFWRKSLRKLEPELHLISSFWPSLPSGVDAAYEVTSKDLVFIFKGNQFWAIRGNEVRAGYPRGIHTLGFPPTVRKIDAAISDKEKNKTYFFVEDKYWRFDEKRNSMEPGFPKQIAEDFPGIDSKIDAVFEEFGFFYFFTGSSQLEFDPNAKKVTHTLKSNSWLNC
# Settings: MMP-3 cleavage, determined at 37° C.
molecule,measurement,value
B1,kcat /Kb,"35,000 S^-1 M^-1"
